Reference: patent US20120027756A1 (IRM, published 2012)

T1: Human TSLPR fragment 67-174 (human, UniProt Q9HC73)
T1 construct: extracellular domain fragment; also called 67 (23) to 174 (58)
T1 receptor fragment (looked up): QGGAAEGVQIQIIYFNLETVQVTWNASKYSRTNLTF

T2: Human TSLPR fragment 67-336 (human, UniProt Q9HC73)
T2 construct: extracellular domain fragment; also called 67 (23) to 336 (112)
T2 sequence (receptor fragment, looked up): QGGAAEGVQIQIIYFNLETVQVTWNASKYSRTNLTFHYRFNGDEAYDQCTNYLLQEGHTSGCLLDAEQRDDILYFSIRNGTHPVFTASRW

T3: Human TSLPR (human, UniProt Q9HC73 23-231, limits assumed)
T3 construct: also called hTSLPR; human thymic stromal lymphopoietin receptor
T3 sequence (looked up): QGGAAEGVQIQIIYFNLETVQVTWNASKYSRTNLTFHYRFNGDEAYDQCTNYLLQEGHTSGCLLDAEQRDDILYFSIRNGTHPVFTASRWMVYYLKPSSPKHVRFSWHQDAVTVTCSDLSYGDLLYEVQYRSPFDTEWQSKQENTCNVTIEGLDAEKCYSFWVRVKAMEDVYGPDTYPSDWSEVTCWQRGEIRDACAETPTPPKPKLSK

T4: Human TSLPR on the cell surface (Ba/F3/hTSLPR/hIL7Rα cells, Ba/F3/hTSLPR/hIL7Rα/Stat5-Luc cells, human … (human, UniProt Q9HC73 23-371))
T4 sequence (looked up): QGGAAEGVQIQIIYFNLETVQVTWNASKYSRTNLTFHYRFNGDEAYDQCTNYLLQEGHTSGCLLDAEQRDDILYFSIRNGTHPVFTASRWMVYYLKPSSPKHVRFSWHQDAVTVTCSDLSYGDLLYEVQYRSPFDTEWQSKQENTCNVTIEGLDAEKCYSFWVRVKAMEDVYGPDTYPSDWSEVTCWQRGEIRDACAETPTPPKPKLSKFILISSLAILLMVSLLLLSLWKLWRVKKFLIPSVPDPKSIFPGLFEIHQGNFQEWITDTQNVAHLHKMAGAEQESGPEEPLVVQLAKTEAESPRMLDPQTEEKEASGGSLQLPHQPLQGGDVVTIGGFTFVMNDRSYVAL


Assays:
[1] = biological target: T1, Human TSLPR fragment 67-174; experiment: ELISA of antibody 1D6.C9 on human TSLPR fragments (OD650); hFc bars as control for the fragment
[2] = biological target: T2, Human TSLPR fragment 67-336; experiment: as above
Human TSLPR [3] = biological target: T3, Human TSLPR; experiment: Biacore surface plasmon resonance
Human TSLPR [4] = biological target: T3, Human TSLPR; experiment: ForteBio, solution binding kinetics
[5] = biological target: T4, Human TSLPR on the cell surface …; experiment: cell-based or functional assay

Row | Binder | binding result [1] | binding result [2] | Kd (Human TSLPR [3]) [pM] | Kd (Human TSLPR [4]) [pM] | IC50 [pM] Human TSLPR Prolif. [5] [pM] | IC50 [pM] Human TSLPR Prolif. (15% serum) [5] [pM] | IC50 [pM] Human TSLPR RGA [5] [pM] | IC50 [pM] Human TSLPR RGA (15% serum) [5] [pM]
1 | mouse anti-hTSLPR monoclonal antibody clone 1D6.C9 (antibody, V domains shown, also called mAb 1D6.C9; mouse anti-hTSLPR antibody) VH: QIQLGQSGPELKKPGETVKISCKASGYTFTTYGMSWVKQAPGKGLQWMGWINTYSGVPRYADDFKGRFAFSLETSASTAYLQIYNLKNEDTATYFCTREGFITTVVGAAGRFVYWGQGTLVTVSA VL: DIVMTQSHKFMSTSVGDRVSITCKASQDVGTAVAWYQQKPGQSPKLLIYWASTRHTGVPDRFTGSGSGTDFTLTLNNVQSEDLADYFCQQYSTYPTFGSGTKLELKR | no binding | no binding |  |  |  |  |  | 
2 | NV115-3B (Fab) (Fab, V domains shown, the constant domains of the Fab are not) VH: QVQLVQSGAEVKKPGASVKVSCKASGYTFTTYGISWLRQAPGQGLEWMGWVNTNTGNPRYAQGFTGRFVFSLDTSVSTAYLQISSLKAEDTAVYYCAREGFITTVVGAAGRFVYWGQGTLVTVSS VL: DIQMTQSPSSLSASVGDRVTITCRASQDIHTRLAWYQQKPGQPPKLLIYWASTRASGVPDRFSGTGSGTDFTLTISSLQAEDVAVYYCQQYSTYPTFGQGTKLEIK |  |  | 101 | 51 | 210 | 200 | 270 | 950
